Reference: the DeepSol protein solubility set

Test: soluble on expression in E. coli; label from the status in PepcDB or PDB records

Row | Sequence | soluble on expression in E. coli
1 | MSLTDRIFINAVDAGGQPIHLVVRDGRFIAIGADCAAAPGAETIDLDGRVVLPGFVDGHIHLDKSFVGDRWVPHEPVGTLRERLAVEKRQLAAAPPIVERANALIAQAAAFGTVAMRSHVDVDATTGLSNLQAVMAAREQWRGIVDIELVAFPQAGVVTCPGTAEILDVAVREGADVVGGIDPTTLDGDADGQLDIVFGIAEKRGAKIDIHLHEPGETGIAQLLRIAARTRAAGLGGRVNVSHAYALGQVSDGDVQRTAAALAEAGVSILTNAPGDCAFPPVQALRDAGVHVFAGNDNIRDAWWPYGNGDMLQRAMMVGYRSGFYTDEALGIALDMATHAGARVIGKDNYGIAVGRDATFVAVRAPNAAAAVAGVPAERWVFRRGESDTGAPFAPALRFTREGHHHHHH | soluble
2 | MSLTEDLNKRVEQAAQGITPQTKPDERRRYLGSLRERVLVRLNNTEVKDPKLTALFLKHITDFKGYTILINGNITDDGFLGEVEAACSKEDIPFTLVNNETAKTGPEDTAILVVAKTAINHPRVEINQVYPPEMPKTELSAPSKKHESFWHHLFHKDEGHHHHHH | soluble
3 | MSLTEFWNSFSNLFTGGRSTNRKIILVLLIMVLSSGVCSADNYVGGIPLTSAHSGTVSGGVYCDSYYGMGDQEAKASNTIEKTFTVPDNANVEWAMLLTNVYCGHMQNNYQGKAKVDFNGKNLGTETLNVPYTYSYNGGNGHVQVNDHVNRVTSDYMMYYDVTGLVKAGKNTAVVKTDPLDSSFDGRIRLVTLVVAYNDGSKKTIWYQVNRGHDADSYYSDDEMNENYIGSTAFQAALPEGSSLTDSKLTLVYQASSDGAYAFNGNALSSGTPQGTFSGSNTWDVKDSLKSSGTNTLTYDRTASFYKSVLGILTAEYTTSSSGDSTDDTPADNEGHHHHHH | soluble
4 | MSLTGREILEKLERREFTREVLKEALSINDRGFNEALFKLADEIRRKYVGDEVHIRAIIEFSNVCRKNCLYCGLRRDNKNLKRYRMTPEEIVERARLAVQFGAKTIVLQSGEDPYYMPDVISDIVKEIKKMGVAVTLSLGEWPREYYEKWKEAGADRYLLRHETANPVLHRKLRPDTSFENRLNCLLTLKELGYETGAGSMVGLPGQTIDDLVDDLLFLKEHDFDMVGIGPFIPHPDTPLANEKKGDFTLTLKMVALTRILLPDSNIPATTAMGTIVPGGREITLRCGANVIMPNWTPSPYRQLYQLYPGKICVFEKDTACIPCVMKMIELLGRKPGRDWGGRKRVFETVEGHHHHHH | soluble
5 | MSLTIAVYGLGKMGLPLAAVFADHGANVIGVDINERVVEMVNKGENHVKEEPGLDELVRRNVEEGRLRATTDGVWAAKSADVMIILVPTLADDRGNLKLEPVYDVANKIAKGLEKGDIVITEATMPPGTTESLIPILEKSGLKLGEFGLAHAPERTMTGTAIRDITGQYPKIVGASDERTLEAVIGLYETINRKGVIPMSSIKAAEAVKVFEGVYRDVNIALANELALWCEEHGLDALEIFNAANTQPYCHLHMPGAGVGGHCIPVYPWFVISLAKKTNPRLIKTAREINDSMPHHIVELTIRGLNEVGKPLKGSNVLVLGLTFRGGVREFTKSPAIDVIKELKEWGARVFTYDPLCNEEDAKRFGAEWKEDFKDVDAIVIVTDHKEFKDLNLEEIAKQVRNRVIVDGRNILDPRKAEKLGFVYLRVGRVEGHHHHHH | soluble
6 | MSLTIFDNYEVWFVIGSQHLYGPETLRQVTQHAEHVVNALNTEAKLPCKLVLKPLGTTPDEITAICRDANYDDRCAGLVVWLHTFSPAKMWINGLTMLNKPLLQFHTQFNAALPWDSIDMDFMNLNQTAHGGREFGFIGARMRQQHAVVTGHWQDKQAHERIGSWMRQAVSKQDTRHLKVCRFGDNMREVAVTDGDKVAAQIKFGFSVNTWAVGDLVQVVNSISDGDVNALVDEYESCYTMTPATQIHGKKRQNVLEAARIELGMKRFLEQGGFHAFTTTFEDLHGLKQLPGLAVQRLMQQGYGFAGEGDWKTAALLRIMKVMSTGLQGGTSFMEDYTYHFEKGNDLVLGSHMLEVCPSIAAEEKPILDVQHLGIGGKDDPARLIFNTQTGPAIVASLIDLGDRYRLLVNCIDTVKTPHSLPKLPVANALWKAQPDLPTASEAWILAGGAHHTVFSHALNLNDMRQFAEMHDIEITVIDNDTRLPAFKDALRWNEVYYGFRREGHHHHHH | soluble
7 | MSLTIKLITFDLDDTLWDTAPVIVSAEATLRQWLTEHAPNLGGVPVEHLWAIRERVLLAQPNLKHRISALRRQVLFHALEEAGYDHAQANQLADQSFEVFLHARHQLEIFPEVQPTLEALANHFALGVVTNGNADVRRLGLADYFKFALCAEDIGIAKPDARLFHEALQRGEATADTAVHIGDHPGDDIAGAQQAGLRAIWFNPNGKTWEAEHAPDAEIRSLNELPGLLARWHRGAEGHHHHHH | soluble
8 | MSLTITRIETIPMVAPLAREFRGSHYHMTHRATIVTRVHTDAGIIGEAYTGDEHETMFDIDRIIHEELAPTLIGQDAMAIERLWDSGYKVTFDILRDRRLGLVALAAVNTAIWDAVGKALKMPLWKLWGGYRNELPMIAIGGYYGEPLGSIADEMHNYQELGLAGVKFKVGGLSAAEDAARITAAREAAGDDFIICIDANQGYKPAVAVDLSRRIADLNIRWFEEPVEWHNDKRSMRDVRYQGSVPVCAGQTEFSASGCRDLMETGAIDVCNFDSSWSGGPTAWLRTAAIATSYDVQMGHHEEPQVSTHLLASQPHGTIAECFHPDRDPFWWNMITNRPKLNNGTLTLSDRPGLGWDLNWDYIDQYRVSKDEGHHHHHH | soluble
9 | MSLTKEPILELADMSDFEQLIRQHPEKIIILDFYATWCGPCKAIAPLYKELATTHKGIIFCKVDVDEAEDLCSKYDVKMMPTFIFTKNGDAIEALEGCVEDELRQKVLEHVSAQ | not soluble
10 | MSLTKIVIIGGVAGGASAAARARRLSEDAEIIMFERGPYVSFANCGLPYHIGGDIKERSNLLLQTPESFLARFNVDVRTMNEVLRINRAAKTITVRNLLDQSEYDENYDFLLLSPGAGPVIPPIPGIQNPLTHSLRNIPDMDKIIQTLQMNKPEHATVVGGGFIGLEMMEAFHHLGIKTTLIEMADQVMTPVDREMAGFAHAEIRAKGIDLRLGAALKSVEYRPAATLPSAESGESLEHKHVEGELDLLLSNGDTLTTDILIMAIGVRPETKLAAEAGLQLGELGGIWVNEQMQTSDPAIYAVGDAVEEKDFVTGKQTLVPLAGPANRQGRMAADNMLGRNESYQGTQGTAICKIFDLAVASTGKNEKQLKREGIAYEKVYVHTASHASYYPGAEVVSFKMLFDPQTGKIFGAQAVGKDGIDKRIDVMAVAQRAGMTVEQLQHLELTYAPPFGSAKDVINQAAFVATNLIKGDAKAIHFDEIDNLTDEQVLLDVRNPMELQNMGYLPGAINIPVDQLRQHMNELPKDKEIVIYCQVGLRGNVAYRQLVNNGFKARNLIGGYRTYKFAKAEGHHHHHH | soluble
11 | MSLTKMVIKGGTVYDPLNGIDGEVMDIFIKDGKIVENLSDGELKDAKILDVKGKVVMPGGVDSHTHVAGPKVNTGRVMCPEDHYKSPLKKTHNTHCGSGEIVPSTYAQGYKYSSMGYTTLFEAAVPPMLARHTHEEFKVMPIVDKAGYLLLGSNWFVMKYLKEGNVEKAAAYVAWALETTKTFGIKLVNPAGVESWAWGKNVHSLEEENIHFGISSGEVIRGLGAVNEMLGLPMSIHLHANNLGHPGNWEFTIDTMDVAKNIKPAVNKQGYDNGVKTKYSHEREQSLYMTHMQFHSFGGTSWKDFESKAEDISNYVNKSDHVVMDSGSVAFGKAICMTGDGPGLYDLAVMNGQKWANVDVELECGSGVVPFVYSMKNKVHSVQWAMGIELLLLTDPRKVIMTTDNPNAGPFTKYPQLITWLMSKKAREDTMKLCHKWAGERSGLAGNDKELSLYDLATVTRATPAKAIGMGHRKGHLSPGADADITVYDISPDYNSSDYAAIEKAFTTALFTIKDGEVITKDGRIIETPKGRTYYVDAKFNEEIQKEIIADVQDWFRRYYSIGFSNYPVPDLYLTKPTPLNINVREGHHHHHH | not soluble
12 | MSLTKNKFDNRADKLGESWDLLNKEGRKIGLKHRGEPFKPGEWHSLVNASIFNYQHEILMQQRSFNKIGRPGEWDFETGGSVLASEDSLTAIKREVKEEVGLELNFSEENFVETFRNWPVFDNWYVIKADLSIKDIRIQKSELEQAKFMPFDQAIKYLSSNYLPYLLKAYKKLFGGENEGHHHHHH | not soluble
13 | MSLTKSYAEEQKRSVSEKLLKEKKLSLILDLDGTIVFTNPELCIPLESEEEPITPEQGFYFEIPEQNAKVFIRFRDGIVTFMEKVSKLYDIHVVTLGQKEYAFAIVNAINKLRNIPFITGDLVTAEDCSSVIVCDEKDTNDGLIDREETNERRSVKRSIPTMGKEEMQVIVDDRIDVWDNKNVVQICEYVPSTNQVDTELVRVTEVLQNIYTKFYDEHIEDVKEILHLFRKKILENKNLYFNREGHHHHHH | soluble
14 | MSLTKTVLILTAAIDLDGGDWFSPCWERVTRSMALGKAGDIIHGCVPGAALAIREEKPIAAGRSAQNRRGSFREQEDGSYVLLAGRIFNRTDLLRRFDLKQGMDDADLYAAVSARMGEAAYRAIVGDYAALQWFPQRRSLRLARSGTSNMPLHVWRDGSRIVISSLPGPILASGVPARINDDRVADELLLFSPDGRTSFYAGMHRVPGGGEEVHDPSGFKARRLWSVKDAPEIRLRRDEDYVEALDVLFDEAVSATMDGSSAPGILLSGGFDSQTVASYAVKRLPAGRRLQAFTSVPMQGWTPPPRPGIFGDESAHVRALCAMYPQIEPHFIEAADFRYGERGHRQFLVGGWPVFNEMNAHWSHASLEQAADLGCDLMLTGDLGNSGFSYDGLTGYPTWLREGQWFRLLREIGKSDDPRPFWRKLISLAVMPHVPVRWKRKMDRHRPWRPSAFATWCGMREDFARESGVLDRAEAGGHDIDFYDIPSARTWRANVVDSLNDGAPEIYLGYQLLYGVPMRDPTAYLPLLEFCAGIPDEQYLRDGQTRWLARRLMQGRVPEMVRLENRIGAQSSDWPQRFARDREDLIAEMERMKADERLAKIFDFERLAANLREWDGSDRPESRSNFKINAAVGRAMVSARFVSHVEGRNVGEGHHHHHH | soluble
15 | MSLTLKTTEDLFQQSLHEYTITHAIEDKNVLRFHVDYYKPDGKSTPKPGETLAKRAVVDAILSKHDAATGGRRFNAILATASINDAIGYFGLFKTAQAEKQRVEPGYVPLNIAAVFSPPSDVSADVRQLQEDLPQEQEDNKKDSDAKKAALKAIIGDYNTRFGTNHRIEEFDAYYQDVQQRIKDQQFPNADLPDKGREKLDIVIVVDMLLTGFDSKYLNTLYVDKNLKYHGLIQAFSRTNRVLNDTKPYGNILDFRGQQKEVDAAIALFSGAKADKAREIWLVDTAPVVIDKLKEARGSLDSFLASQGLGGKPEDIANLKGTAAKVAFIKHFKDVQKLQTQLDQYTDLTAEQQAQVEAILPKDELRSFRGQYLQKAEELRADQKKAGEGHHHHHH | soluble
16 | MSLTLRIALFGAGRIGHVHAANIAANPDLELVVIADPFIEGAQRLAEANGAEAVASPDEVFARDDIDGIVIGSPTSTHVDLITRAVERGIPALCEKPIDLDIEMVRACKEKIGDGASKVMLGFNRRFDPSFAAINARVANQEIGNLEQLVIISRDPAPAPKDYIAGSGGIFRDMTIHDLDMARFFVPNIVEVTATGANVFSQEIAEFNDYDQVIVTLRGSKGELINIVNSRHCSYGYDQRLEAFGSKGMLAADNIRPTTVRKHNAESTEQADPIFNFFLERYDAAYKAELATFAQGIRDGQGFSPNFEDGVIALELANACLESAQTGRTVTLNPANEGHHHHHH | soluble
17 | MSLTMKDVALEAGVSVGTVSRVINKEKGIKEVTLRKVQRAIKTLDYIPDNYARGMKKNRTETIALIIPSIWHPFFSEFAYHVEKELLKYNYKLFICNADSDSQNEIEYIEMLKQNKVDGIIGITYSDIDKYILSDLPFVSIDRHFSENVCYVTSANYKGGQTAAEELVRRDNKHLAFIGSINMYENETILRSKGFREKAKELGVDVYNFEMKEPLINPEDQIRIFLQSHKEIDGIFTINDMMALRVISVMKELGKIAPDDYQIIGFDGLKTSVDQSYLVSTIVQDIGMMAKESVAMILKMIKREEILEKRIVIPTYFWGDKTTKKEGHHHHHH | soluble
